Experimental data from US20030148958A1 (PROCTER AND GAMBLE, published 2003).
Ends that are not written are not given here.

Legend:
CRF1R = assay: cell-based or functional assay
CRF2R = target: T1, CRF2R; assay: cell-based or functional assay
T1 sequence (Q13324 whole entry, species assumed, looked up): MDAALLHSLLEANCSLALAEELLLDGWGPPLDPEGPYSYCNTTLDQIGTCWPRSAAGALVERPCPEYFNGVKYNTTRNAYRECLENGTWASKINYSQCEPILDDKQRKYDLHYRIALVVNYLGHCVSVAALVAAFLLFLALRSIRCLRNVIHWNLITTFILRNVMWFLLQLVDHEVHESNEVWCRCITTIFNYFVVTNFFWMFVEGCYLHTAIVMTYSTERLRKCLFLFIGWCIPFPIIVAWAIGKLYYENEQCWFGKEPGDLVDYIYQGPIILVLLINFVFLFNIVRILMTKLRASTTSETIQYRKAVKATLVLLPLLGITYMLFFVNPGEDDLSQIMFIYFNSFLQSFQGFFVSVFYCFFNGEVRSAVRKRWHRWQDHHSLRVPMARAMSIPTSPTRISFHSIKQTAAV
Wherever CRF1R Emax % is given: reference of the scale not given here.
Wherever CRF2R Emax % is given: reference of the scale not given here.

Binder | CRF1R EC50 (CRF1R) | CRF1R Emax % (CRF1R) | CRF2R EC50 (CRF2R) | CRF2R Emax % (CRF2R)
NDDPPISIDLPLQLLRNMIEMARIENEREQAGLNAKYLAEV-NH2 [SEQ ID NO 270] | 1 µM | 7.85% | 0.1 µM | 19.3%
NDDPPISIDLPLYLLRNMIEMARIENEREQAGLNAKYLAEV-NH2 [SEQ ID NO 271] | 0.815 µM | 80.7% | 0.0481 µM | 69%
ZGPPISIDLPFQLLRKVIEIEKQEKEKQQAANNAELLAEI (not fully specified; C-terminal amide) [SEQ ID NO 272] | 1 µM | 51.1% | 0.0233 µM | 100%
ZGPPISIDLPFQLLRKVIEIEKQEKEKQQAANNAHLLAHI (C-terminal amide) [SEQ ID NO 277] | 1 µM | 39.9% | 0.0282 µM | 100%
ZGPPISIDLPFQLLRKVIEIEKQEKEKQQAANNARLLARI (not fully specified; C-terminal amide) [SEQ ID NO 279] | 1 µM | 93% | 0.0131 µM | 100%
ZGPPISIDLPIFLLRKVIEIEKQEKEKQQAANNALLLATI (not fully specified; C-terminal amide) [SEQ ID NO 280] | 1 µM | 11.8% | 0.1 µM | 82.3%
ZGPPISIDLPIFLLRKVIEIEKQEKEKQQAANNARLLARI (C-terminal amide) [SEQ ID NO 281] | 1 µM | 12.2% | 0.1 µM | 78.8%
ZGPPISIDLPTWLLRKVIEIEKQEKEKQQAANNRLLLDTI (C-terminal amide) [SEQ ID NO 284] | 1 µM | 27.7% | 0.1 µM | 100%
ZGPPISIDLPQILLRKMIEIEKQEKEKQQAANNARLLARI (C-terminal amide) [SEQ ID NO 285] | 1 µM | 11.1% | 0.0139 µM | 97.1%
ZGPPISIDLPYQLLRKMIEIEKQEKEKQQAANNARLLAR (C-terminal amide) [SEQ ID NO 287] | 1 µM |  | 0.0113 µM | 100%
ZGPPISIDLPYQLLRKMIEIEKQEKEKQQAANNARLLAR (C-terminal amide) [SEQ ID NO 288] | 0.838 µM |  | 0.0147 µM | 100%
ZGPPISIDLPYWLLRKMIEIEKQEKEKQQAANNARLLARI (C-terminal amide) [SEQ ID NO 289] | 1 µM | 69.5% | 0.0122 µM | 97.3%
ZGPPISIDLPIILLRKMIEIEKQEKEKQQAANNARLLARI (C-terminal amide) [SEQ ID NO 290] | 1 µM | 6.4% | 0.1 µM | 100%
ZGPPISIDLPTWLLRKVIEIEKQEKEKQQAANNARLLARI (C-terminal amide) [SEQ ID NO 291] | 1 µM | 4.75% | 0.1 µM | 63.8%
ZGPPISIDLPTWLLRKMIEIEKQEKEKQQAANNARLLARI (C-terminal amide) [SEQ ID NO 292] | 1 µM | 7% | 0.1 µM | 86.1%

Next, values leading:

CRF1R EC50 (CRF1R) | CRF1R Emax % (CRF1R) | CRF2R EC50 (CRF2R) | CRF2R Emax % (CRF2R) | Binder
1 µM | 59.3% | 0.0313 µM | 100% | ZGPPISIDLPFQLLRKVIEIEKQEKEKQQAANNAQLLAHI (not fully specified; C-terminal amide) [SEQ ID NO 273]
0.508 µM | 80.9% | 0.0138 µM | 100% | ZGPPISIDLPFQLLRKVIEIEKQEKEKQQAANNAKLLAKI (not fully specified; C-terminal amide) [SEQ ID NO 274]
1 µM | 38.3% | 0.0466 µM | 100% | ZGPPISIDLPFQLLRKVIEIEKQEKEKQQAANNANLLANI (not fully specified; C-terminal amide) [SEQ ID NO 275]
1 µM | 75.7% | 0.0221 µM | 100% | ZGPPISIDLPFQLLRKVIEIEKQEKEKQQAANNAQLLAQI (not fully specified; C-terminal amide) [SEQ ID NO 276]
1 µM | 48.7% | 0.0196 µM | 100% | ZGPPISIDLPFQLLRKVIEIEKQEKEKQQAANNARLLDTI (C-terminal amide) [SEQ ID NO 278]
1 µM | 21.8% | 0.0258 µM | 60.8% | ZGPPISIDLPIFLLRKMIEIEKQEKEKQQAANNARLLARI (not fully specified; C-terminal amide) [SEQ ID NO 282]
0.635 µM | 100% | 0.0106 µM | 72% | ZGPPISIDLPYQLLRKVIEIEKQEKEKQQAANNRLLLDTI (C-terminal amide) [SEQ ID NO 283]
1 µM | 19.2% | 0.0135 µM | 92.5% | ZGPPISIDLPYQLLRKVIEIEKQEKEKQQAANNARLLARI (C-terminal amide) [SEQ ID NO 286]
0.52 µM | 95.3% | 0.0403 µM | 87% | ZGPPISIDLPQILLRKVIEIEKQEKEKQQAANNRLLLDTI (C-terminal amide) [SEQ ID NO 293]
1 µM | 13.6% | 0.1 µM | 100% | ZGPPISIDLPQILLRKVIEIEKQEKEKQQAANNARLLARI (C-terminal amide) [SEQ ID NO 294]
1 µM | 5.3% | 0.0551 µM | 67.6% | ZGPPISIDLPIILLRKVIEIEKQEKEKQQAANNARLLARI (C-terminal amide) [SEQ ID NO 295]
0.1 µM | 4% | 0.00666 µM | 65% | HHHHHHIVLSLDVPIGLLQILLEQARARAAREQATTNARILARN-NH2 [SEQ ID NO 296]
1 µM | 27.2% | 0.1 µM | 88.3% | ZGPPISIDLPIILLRKVIEIEKQEKEKQQAANNRLLLDTI (C-terminal amide) [SEQ ID NO 297]
